Laboratory results: patent US20240150440A1 (LUMEN BIOSCIENCE, published 2024)

Assays:
[1] = target: T1, SARS-CoV-2 spike protein on pseudotyped lentivirus (Wuhan Reference Pseudovirus) (SARS-CoV-2, UniProt P0DTC2 14-1273); test: cell-based or functional assay
[2] = target: SARS-CoV-2 Delta Variant spike protein on pseudotyped lentivirus (SARS-CoV-2 Delta variant); test: cell-based or functional assay
[3] = target: T1, SARS-CoV-2 spike protein on pseudotyped …; test: cell-based or functional assay; remark: listed apart in the source
[4] = target: T1, SARS-CoV-2 spike protein on pseudotyped …; test: cell-based or functional assay; remark: listed apart in the source
[5] = target: T2, SARS-CoV-2 Delta Variant RBD (SARS-CoV-2 Delta variant); test: ELISA, RBD coated
T2 construct: domain: RBD; coated on ELISA plates

[6] = target: T3, SARS-CoV-2 Alpha Variant RBD (SARS-CoV-2 Alpha variant); test: ELISA, RBD coated
T3 construct: domain: RBD; coated on ELISA plates

[7] = target: T4, SARS-CoV-2 Beta Variant RBD (SARS-CoV-2 Beta variant); test: ELISA, RBD coated
T4 construct: domain: RBD; coated on ELISA plates

[8] = target: T5, SARS-CoV-2 Gamma Variant RBD (SARS-CoV-2 Gamma variant); test: ELISA, RBD coated
T5 construct: domain: RBD; coated on ELISA plates

[9] = target: T6, recombinant SARS-CoV-2 RBD with C-terminal AviTag (SARS-CoV-2, UniProt P0DTC2 319-541); test: BLI, biotinylated RBD on streptavidin biosensors; OR: over-range [Cont. 4]
[10] = target: T6, recombinant SARS-CoV-2 RBD with …; test: ELISA, competition with coated ACE2-Fc for RBD [Cont. 4]
[11] = target: T1, SARS-CoV-2 spike protein on pseudotyped …; test: cell-based or functional assay; remark: listed apart in the source
[12] = target: T1, SARS-CoV-2 spike protein on pseudotyped …; test: cell-based or functional assay; remark: listed apart in the source
[13] = target: T6, recombinant SARS-CoV-2 RBD with …; test: ELISA, competition with coated ACE2-Fc for RBD [Cont. 5]
[14] = target: SARS-CoV-2 Gamma Variant spike protein on pseudotyped lentivirus (SARS-CoV-2 Gamma variant); test: cell-based or functional assay
[15] = target: T1, SARS-CoV-2 spike protein on pseudotyped …; test: cell-based or functional assay; remark: listed apart in the source

B1: PP1148 MBP-5HVZ-PAPA-R5a-C5-H6 (VHH)
VHH: QVQLVESGGGLVQPGGSLRLSCAASGDIFSINALHWFRQAPGKQREEVAAITSGGSTGYADSVKGRFTISRDNAKNTVYLQMNSLKPEDTAVYYCAAQQARGGLDSDYWGQGTQVTVSS
notes: Form: Dimer
[1]
  Pseudovirus neutralization IC50: 15.7 nM
[2]
  Pseudovirus neutralization IC50: 0.53 nM
[3]
  Pseudovirus inhibition IC50 [Cont. 2]: 4.7 nM
[4]
  infectivity % under 10 ug/mL VHH treatment: 5.95%
[5]
  EC50: 0.22 nM
[6]
  EC50: 0.33 nM
[7]
  EC50: 30.5 nM
[8]
  EC50: 9.06 nM

B2: PP1136 MBP-4B0F-PAPA-R5a-C5-H6 (VHH)
VHH: QVQLVESGGGLVQPGGSLRLSCAASGDIFSINALHWFRQAPGKQREEVAAITSGGSTGYADSVKGRFTISRDNAKNTVYLQMNSLKPEDTAVYYCAAQQARGGLDSDYWGQGTQVTVSS
notes: Form: Heptamer
[1]
  Pseudovirus neutralization IC50: 0.05 nM
[3]
  Pseudovirus inhibition IC50 [Cont. 2]: 0.35 nM
[4]
  infectivity % under 10 ug/mL VHH treatment: 1.53%

B3: PP834 MBP-R5C-G2-H6 (VHH)
VHH: QVQLVESGGGLVQPGGSLRLSCAASGSATSINRMAWVRQAPGKEREWVAVIDSGGYTYYADSVKGRFTISRDNAKNTVYLQMNSLKPEDTAVYYCNAVPVTTDKTPMYQYWGQGTQVTVSS
notes: Form: Monomer
[4]
  infectivity % under 10 ug/mL VHH treatment: 89.2%
[9]
  Kd: ~2120 nM
[10]
  IC50: 184 nM

B4: PP1100 MBP-5HVZ-PAPA-RN-14-H6 (VHH)
VHH: QVQLVESGGGLVQPGGSLRLSCAASGENFSGNLVHWFRQAPGKAREGVATVTSTGSGYYADSVKGRFTISRDNAKNTVYLQMNSLKPEDTAVYYCAAKHQKGEIPYYDWGQGTQVTVSS
notes: Form: Dimer
[1]
  Pseudovirus neutralization IC50: 6.95 nM
[4]
  infectivity % under 10 ug/mL VHH treatment: 17.2%
[5]
  EC50: 46.5 nM
[6]
  EC50: 0.35 nM
[11]
  Pseudovirus inhibition IC50 [Cont. 8]: 13.9 nM

B5: PP1097 MBP-5HVZ-PAPA-RN-5-H6 (VHH)
VHH: QVQLVESGGGLVQPGGSLRLSCAASGSSFRILAMHWYRQAPGKNREWVAVITSNGNTYYADSVKGRFTISRDNAKNTVYLQMNSLKPEDTAVYYCNADTLDLDDGATYNYWGQGTQVTVSS
[1]
  Pseudovirus neutralization IC50: 27.3 nM
[4]
  infectivity % under 10 ug/mL VHH treatment: 18.6%
[5]
  EC50: 244 nM
[6]
  EC50: 0.3 nM
[7]
  EC50: 95.4 nM
[8]
  EC50: 58.6 nM
[11]
  Pseudovirus inhibition IC50 [Cont. 8]: 54.5 nM

B6: PP1152 MBP-5HVZ-PAPA-R5d-B6-H6 (VHH)
VHH: QVQLVESGGGLVQPGGSLRLSCAASGRILAANIVHWYRQAPGKEREGVAGITSGGGSYYADSVKGRFTISRDNAKNTVYLQMNSLKPEDTAVYYCNALGLGQSSLYRSADPYDSWGQGTQVTVSS
notes: Form: Dimer
[1]
  Pseudovirus neutralization IC50: 3.87 nM
[12]
  Pseudovirus inhibition IC50 [Cont. 4]: 0.85 nM
[4]
  infectivity % under 10 ug/mL VHH treatment: 4.64%

B7: MBP-5HVZ-R5D-B6-H6 (VHH)
VHH: QVQLVESGGGLVQPGGSLRLSCAASGRILAANIVHWYRQAPGKEREGVAGITSGGGSYYADSVKGRFTISRDNAKNTVYLQMNSLKPEDTAVYYCNALGLGQSSLYRSADPYDSWGQGTQVTVSS
notes: dimer
[12]
  Pseudovirus inhibition IC50 [Cont. 4]: 3.26 nM
[10]
  IC50: 15.7 nM

B8: PP1151 MBP-5HVZ-PAPA-R5d-B5-H6 (VHH)
VHH: QVQLVESGGGLVQPGGSLRLSCAASGSRDSIVAMHWYRQAPGKGREGVAGITSRWVTYYADSVKGRFTISRDNAKNTVYLQMNSLKPEDTAVYYCNAPVYYDTEWYDIWGQGTQVTVSS
notes: Form: Dimer
[1]
  Pseudovirus neutralization IC50: 15.3 nM
[12]
  Pseudovirus inhibition IC50 [Cont. 4]: 43.7 nM
[4]
  infectivity % under 10 ug/mL VHH treatment: 35.6%

B9: MBP-5HVZ-R5D-B5-H6 (VHH)
VHH: QVQLVESGGGLVQPGGSLRLSCAASGSRDSIVAMHWYRQAPGKGREGVAGITSRWVTYYADSVKGRFTISRDNAKNTVYLQMNSLKPEDTAVYYCNAPVYYDTEWYDIWGQGTQVTVSS
notes: dimer
[12]
  Pseudovirus inhibition IC50 [Cont. 4]: 3.25 nM
[10]
  IC50: 53.7 nM

B10: PP1149 MBP-5HVZ-PAPA-R5a-E5-H6 (VHH)
VHH: QVQLVESGGGLVQPGGSLRLSCAASGYDFDILRMAWFRQAPGKEREMVAAITSAESVNYEDSVKGRFTISRDNAKNTVYLQMNSLKPEDTAVYYCATYDYTDDYGYASWGQGTQVTVSS
notes: Form: Dimer
[1]
  Pseudovirus neutralization IC50: 37.3 nM
[3]
  Pseudovirus inhibition IC50 [Cont. 2]: 74.7 nM
[4]
  infectivity % under 10 ug/mL VHH treatment: 25.5%
[6]
  EC50: 3.01 nM
[7]
  EC50: 58 nM
[8]
  EC50: 134 nM

B11: PP935 MBP-5HVZ-S3b-E11-H6 (VHH)
VHH: QVQLVESGGGLVQPGGSLRLSCAASGDIYSQSAMAWYRQAPGKEREFVAAITTTGSRSYKDSVKGRFTISRDNAKNTVYLQMNSLKPEDTAVYYCAAFAVRSSSVSDAYDYWGQGTQVTVSS
notes: Form: Dimer
[1]
  Pseudovirus neutralization IC50: 34.2 nM
[4]
  infectivity % under 10 ug/mL VHH treatment: 48.9%
[5]
  EC50: 151 nM
[6]
  EC50: 0.47 nM
[7]
  EC50: 343 nM
[8]
  EC50: 167 nM
[11]
  Pseudovirus inhibition IC50 [Cont. 8]: 68.4 nM

B12: PP837 MBP-R5D-B2-H6 (VHH)
VHH: QVQLVESGGGLVQPGGSLRLSCAASGSIWSIAFMSWYRQAPGKGREWVAAITTGNDEAYADSVKGRFTISRDNAKNTVYLQMNSLKPEDTAVYYCAANTYERTPDGRTFSYWGQGTQVTVSS
notes: Form: Monomer
[4]
  infectivity % under 10 ug/mL VHH treatment: 77.6%
[9]
  Kd: ~2350 nM
[10]
  IC50: 3.7 nM

B13: PP831 MBP-R5C-F3-H6 (VHH)
VHH: QVQLVESGGGLVQPGGSLRLSCAASGTIPSINYTAWYRQAPGKQRELVASLTSGDNRYYTDSVKGRFTISRDNAKNTVYLQMNSLKPEDTAVYYCNAKTVGSSYRDSYNYWGQGTQVTVSS
notes: Form: Monomer
[4]
  infectivity % under 10 ug/mL VHH treatment: 81.2%
[9]
  Kd: ~5370 nM
[10]
  IC50: 151 nM

B14: PP847 MBP-R5E-D1-H6 (VHH)
VHH: QVQLVESGGGLVQPGGSLRLSCAASGFEFSTSAMHWYRQAPGKQREWVARITSGGSDNYGDSVKGRFTISRDNAKNTVYLQMNSLKPEDTAVYYCAAYVGTDNYGYDYWGQGTQVTVSS
notes: Form: Monomer
[13]
  IC50: 2.9 nM
[4]
  infectivity % under 10 ug/mL VHH treatment: 77.1%

B15: PP848 MBP-R5E-G2-H6 (VHH)
VHH: QVQLVESGGGLVQPGGSLRLSCAASGTIKSINAMHWFRQAPGKAREFVASIGSNGAKSYSDSVKGRFTISRDNAKNTVYLQMNSLKPEDTAVYYCTALITVAESDDYDYWGQGTQVTVSS
notes: Form: Monomer
[13]
  IC50: 2.1 nM
[4]
  infectivity % under 10 ug/mL VHH treatment: 81.9%

B16: PP1143 MBP-5HVZ-PAPA-R2b-D5-H6 (VHH)
VHH: QVQLVESGGGLVQPGGSLRLSCAASGYADEINMVHWYRQAPGKGREFVAAIASGGSTFYADSVKGRFTISRDNAKNTVYLQMNSLKPEDTAVYYCAAIPRPSLSYAHDYAYWGQGTQVTVSS
notes: Form: Dimer
[1]
  Pseudovirus neutralization IC50: 0.301 nM
[14]
  Pseudovirus neutralization IC50: 3.13 nM
[15]
  Pseudovirus inhibition IC50: 0.6 nM
[4]
  infectivity % under 10 ug/mL VHH treatment: 0.09%

B17: PP1155 MPB-scTRP-PAPA-R2b-D5-H6 (VHH)
VHH: QVQLVESGGGLVQPGGSLRLSCAASGYADEINMVHWYRQAPGKGREFVAAIASGGSTFYADSVKGRFTISRDNAKNTVYLQMNSLKPEDTAVYYCAAIPRPSLSYAHDYAYWGQGTQVTVSS
notes: Form: Trimer
[1]
  Pseudovirus neutralization IC50: 0.634 nM
[15]
  Pseudovirus inhibition IC50: 1.9 nM
[4]
  infectivity % under 10 ug/mL VHH treatment: 0.01%

B18: PP1131 MBP-4B0F-PAPA-R2b-D5-H6 (VHH)
VHH: QVQLVESGGGLVQPGGSLRLSCAASGYADEINMVHWYRQAPGKGREFVAAIASGGSTFYADSVKGRFTISRDNAKNTVYLQMNSLKPEDTAVYYCAAIPRPSLSYAHDYAYWGQGTQVTVSS
notes: Form: Heptamer
[1]
  Pseudovirus neutralization IC50: 0.93 nM
[15]
  Pseudovirus inhibition IC50: 0.89 nM
[4]
  infectivity % under 10 ug/mL VHH treatment: -0.01%
